Assay results: the DeepSol protein solubility set

Assay: soluble on expression in E. coli; label from the status in PepcDB or PDB records

Soluble on expression in E. coli, not soluble:
MGSDKIHHHHHHMLLPLSSQNVIQHLQAADLCSSEDGKSDIVELPISKKNYNLVVNLADNRKLLVKQERGVENDGILHELFNEWLFHQLLQKFPILGNISAIAPLVVHFDEENSILVRSYLSEYLDLAEFYQNPNVFPKEIAAAIGTTLAALHRTTFQGKEYRDFMATAPQGQFRYHFYNPAQGISSLNPEIFGRIPTEALKFHVLYQCYESLEAAIADLAYEWDACCLTHNDLKLNNILIHSRWNQLDNCLVQLIDWEACTWGDPAFDLGTILASYLEIWLESLVVDPTLELAESLELVMIPLEEIQPSLVALLQAYLQAFPMILEYHPNFLVRVIKFIGLALIHQIQDKINNCKLFDNSHLYMLQVAKNLLTMPEQSILSIFGISEAEILSPVAKVPQVSHPEKEKQLVPLYYEKTRLRGC, MGSDKIHHHHHHMLLRKDEVFYIDLPRKIEKEEKVKEEKTKENAAEEIQRIEKMREKILSEAQEEARKIIEGARKDAEEILSNASSEAEALKLEAKKVLEEAKTMKNDFQKYILALKEKIQKQVNQRIEEILPELLDILRILFKKILEKEMDESTVERKLRSALSKVVGIKNVKIRINPEDAKKLDLSEVSKETLIPDPNVERGGVIVETDFGILDKTFSHQWELVEDIFEEVVGFEGHPERAEKEVE, MGSDKIHHHHHHMLLTTRPPSPDSIPCCAGCSMARVCLAGNCDSDGEGPADGLAQRVIRLRKGEPLYLLGDPLAALFAVRVGTVKTHVATEDGRTQVVGFHFPGEVVGLDSIGRRQYASYATALEDTKVCMIPMDVLRPLAACTPALASRVFRALDGYAQRTRALQTLLALMTAEERLVTFLLWISEGLAARGFSSSEFILRMSREEIGSYIGLTLETVSRQFSRLAECGLIRVKHRSVALVDKAGLRAIADRSAISPIPPGTNRRRGGEQRVPAQALRTSAPAWATRTQPATAAMQADNPKINPFAWEAGNGQQ, MGSDKIHHHHHHMLNETKELLKDYYGIDDDTFKLSQEIMEEIKDKFEEIKEIREYNQYKVLKAMQESKLSDMHFNWTTGYGYNDIGREKIEEIYSKVFNTEDALVRPIIVNGTHALTLCIQGIVRPGDEILSVTGRPYDTLEGVIGIREEKGSLKEYGVTYDDVDFLEDGNLDLEGIKSKINDRTKLVMIQRSKGYSWRKSLSISDIKEAIEVIKSVKPEAIVMVDNCYGEFLDTKEPTDVGADVMAGSLIKNPGGGLALTGGYIAGRKDLIELISYRMTSPGIGKECGLTFGTTRNVLQGFFLAPYIVSQAVMGAIFCSRAFEKLGYDVLPKYDDLRSDIIQCIRLNNADEVISFCEGIQEAAPVDSYVKPVPWDMPGYESEVIMAAGAFIQGSSIELSADAPIRPPYNVYFQGGLTFDHSKMGTLKAIEFIKKLKK, MGSDKIHHHHHHMLNKVLTHLDENIEKSLERLFSLLRFQSISTDFAYKDECRKAADWLVEDLKSIGFKASRRDTSGHPMVVGHHPGPSDDCLHVLFYGHYDVQPVDPLNLWEDDPFTPSLKEREGEKVICARGASDDKGQLMTFIEACRAFKKETGQLPVRVTVLFEGEEESGSSSLVPFLKANKDELKADCALVCDTSMWDADTPSVSVALRGILGEEIIITAANRDLHSGYFGGAAANPIRILTKVLAGLHDENNRVTLPGFYDGVEETPPHILQSWNALNCTAENFLGPIGLSLPAGEKGRSVLELVWARPTAEINGISGGYEGEGIKTVIASQASAKVSFRLVHKQDPEKIRQAFRDYVCSLIPADCSVVFKEHGASPAIQLPYDSPFIKTAKDALSQEWNNPALLTVMGGSIPIVADFQSILDMETLLVGFALADDRIHSPNEKYNLKSFHKGQRSWARILATLAKTGG, MGSDKIHHHHHHMLNMDFSRRVVIRTHEQHWVPSPAAGVERKPLAREEAERGHATSVVRYKPGSSFSTHEHPLGEEILVLEGVFSDETGHYPAGTYIRNPPGSSHAPFSEEGCTLLVKLHQFDPRDTATVRIDTNSGHWLPGIGGLQVMPLHEFEHERVALVKWPPNEAFQPHRHFGGEEIFVLSGEFRDEHGRYPAGSWIRSPHMSQHHPFVEQETVIWVKTGHLPVNHSPET, MGSDKIHHHHHHMLNRVHLNGLRAVETVARLGSLAAAAGELNVSVSAVSQQISRTEKQLGQALFERTASGLVLTEFGAAFATRLGAGFRELAQAVALADEASQCTLVVSVAPAFASKWLLPRLSRHFDRHPNVLLRIDASVRLANLDHSDVDIAIRLGDGEWPGVRAELLLAQEVFPVCAPSIAAKLRSIEDLAQTCAITDERSMISWDSWFKAAGVEPVTFLKGARFTDPMLCLESAIAGHGVMLAWQLLTADALTDGRLVAPFGVRAESGLGYWMVTSATKAESRKVHDFKAWIREEIETTMAQFRTLDSAA, MGSDKIHHHHHHMLNTKDKQPILLIIFGQKMKEYDDLIRSTVERLSKRDRPVSILISKELNHVIHHYDAQFENLETLVGYINTHEDSLIYPLCLDKNHELFQEFLAWQSHYSRQYISDNLSEKSVQAIDNNQDFVQVDCLVMRDSLNNCLYVSDLEYIESNKTTGKSLAIVPSQTLSDAARQTIRDVAFDVCRKANIIGVCYFSFLIDLNSLDYHIISLSSGLSHQSILFETITTYPVLEIATKLTVGYTFSQLKHSYYPNTSAFLEPQLDYVATVSFSFEKVDYIFFARNIEQLFLNLLEASSHDHFPFLSDISEEDLMFALIQKKENRLAYLLEAFRRGFDLYDLSSVTKINPFYLDKCLHIVELYENLNKSQYNVDIYKEAKRYGFSDDYIASSWQISLIDMLEYRKKHSVAPVLKQVEQSSGVLTGHQIQYFRSYDWHSDYISSGCQKALIMVDKGYSLVKLNELIKQIKQTHLELLIVTNQPLLIEQLNDTSIIFDTIGIETILTIMGIEEVEEVYLLGESQADMFSKMKNFSISCQSI, MGSDKIHHHHHHMLNWSHLPAIKPKYLAITQFIKQAIQNGDLLPGQRLPAERELATLLHVDRSTVTRALLDLAAVGILVKKRGSGTFVAQLPHVNQLANKVNWQAFLENTTATRHATYQRKLAKARTTATVPLIDAAANELPTNLIPQLGTLTLDWQGFLTAQQQEERTGYLPLMQTINRYHTARQQFTLDRQSLIITGGAQQALLLILNSLLQPGDAVAFVTPSYFSASAVFSAAGVRAYTIPTTTLGLDLTALETAIIKHRIKLLILNPTLQNPTGRILPLAERQAILALCQRYQVAIVEDDVFGWLVDRDIAVPPFKALAPDNVIYISSLSKLLGSNTRIGWIVAPQAIGERIRQVQKNLDLVPSLLAQVMVDHALNSPEFSLGVTQLTTQLAQRRQNVTAILRQLRPDWHFVTPLGGFYLWVTQADRNVFEHLLEQHLLVTPGPIYGADRSAFRFNFAGLDYRQQRLLIQRLS, MGSDKIHHHHHHMLPGSRSLSKELGINRKTVQAVYEELEAQGWLVTRPRKGTFVADVLPEKKPHIEPRADRKVSNKPIIQQVAQRPHNDGVPDPRLIPYELFSRAYRHALIKITQNQYMGYGDPRGMAELRQALKQMLSMERFMNVAEDEICVVRGSQMGIFLASRALPNRQGVIVVEELYYPSAVKAFQSNGFQVVSVKLDDQGIVIEDLERILKEHSVAAIYTTPHHQYPTTVTMTMSRRLQLLELSKKWGFYIIEDDYDHEFHYDSRPMPPLASLPHSELVIHVGSLSKVFAPGIRLGYIVAAPTIIQTITEDILLIDRQGNNITELALADLMQRGEIKRHIRKMKKIYQLRRDHALAEFQRVFAESIEIQPPAGGMALWVKFQKSFTQDQLIKLKELNIDTEQKFKQKECANHCIRFGFAALSEKEITSLIETLNEAL, MGSDKIHHHHHHMLPPLDSDLMRGFLAVVETGSLTRAGHRLGRTQSAISMQIRKLEDSLGQSVFVREPRGVRLTERGKQLLPYAQRVVGLLDEAAIALREKPLSGPVRVGVPDEYIQGVLPAVLSAFSQRHPETQVTLRCDFSAPQLEALNSDKIDLAVIYEGYSTDEVEVLAVDPTVWVTSISHAQHLHRPLPISIYFSSDWCRDFALHSLEQIGIPYFAAFECDTSGGMRSAVSNGIAVAPLARSSIPPGCRELTAEDGFMGVDNARVVLRRNPAGSSTAIEAMVATLREAFWPLTKNGGL, MGSDKIHHHHHHMLPRLLDRCAGMVSHDWTALDRDLRRFLPKKSVVSKRQELLVYDCDGLTIDRHCPPLAVLPETTEEVSQILACCHRHSIPFVARGSGTGLSGGALVEQEALLVVTSRMRRILSMDLDNHTITVQPGVINSWVTRAVAGEGFYYAPDPSSQVVCSIGGNVAENSGGVHCLKYGVTSNHVLGLEVVLADGTVTLLGGGLPEHAELDLRGAFIGSEGTLGIATAITLRLLRAPQHVTVLLADFPTMESAGEAVCQVTAAGVLPAGMEIMDNFMINAVNDLFGFDEYPRDAAAVLLIELDGQAAEVTVAADQASGLCSKAGARTIRRAEEPADRALLWKGRKSAFAAVGQISPTYYVQDGVVPRSTLPRVLMAIERLSREYELPVANVFHAGDGNLHPLILYNADTPDVESRVRDLGSAILRECLDVGGSITGEHGVGADKRCYLDWMFAADDLSTMKLLRRAFDPDGRANPDKIFPTPKSCGESARRQVILTSEGLEMPSEAKAF, MGSDKIHHHHHHMLQFIPVFDGNTIAVRASGKLTLEDFQQFFPQLETQIKRLGKISLLFEFDNFSGWDLDAAIDDIKFGMKHLSDFERIAMVGDKSWEHWMALIAKPFLISSEVRYFNRENLQQAWDWLREKQEFEKAVEQLQPYQNIVVAVDFSLYSKHACKRAIELANYYQASLTLLNVVPEVLAYTLYGDPVGYNVVDLDIIKDQNKKNIDAAQFQMKAFVNDLDTNFPIETKVICGEINYGVVSFLEAQHIDLAIFGAKKKKGINKLLGSVPHYVQNHSRCEILIVPVQGPVF, MGSDKIHHHHHHMLRAELHVHSSFSDGRDGVRKILEAAVEKKLEVIAITDHDTVQGSLEAIDIVKEEHLPLKVLPGCEVTASTGHVLVYGITKDIEPRMSVEETCKIARELGGVCFLAHPFDFIRKGSVRLKDFKMVDGIETFNAKSYFNFLAKRYAKKLSKPEIAGSDAHSARAVGLAINYLPDEFDLLNALFHARFDGRRVSIRERLAFLRFRLNQRL, MGSDKIHHHHHHMLRSLPVLMYHYISRVHDSIAVHPDQFEDHCRGMAAEGWRGVSLAEAEAFLAEGTPLPERSVLITFDDGFLDNYVHALPILEKYGHCGTVFATAGKLETAAGLRPTLADVWSGRIPAEGLPRVDAPFVKHRLGFDERHDLFLNWDEARHAESTGTLAVAAHSMWHRSVFTSASYEGFYAPQRRGRTFDRVEGDVPWGLPRFKVGPALRERAFLPSAELLHAIRETVPQDKDGAYAFFSDTAATERLMHTVEAFGADGLGRFETDAERTERMYREMRDCKQLLENELGHPVTTFCWPWGAFCDEALAIGRELGFRVFLTTLMGSNPPSAPLAVHRFKAKAKPWSWLRLRLHVYSRPLLANLYARMRL, MGSDKIHHHHHHMLSAKIEVYDSRFYQLVGTEARLEELFDKAIWAEGPVWLEKQQAVIFSDVKGNTMYRWTAEQGTQIFRQPSQFANGNAVDAAGNLITCEHGRRAISLTDHAGNIRVLVNKLEGKRLNSPNDVVVKSDGTIWFTDPPYGILSDAEGKKSPSEIIGCYVYCYDPITDDIHIATFNVMRPNGLAFCENETKLVVADMSVVEFKRTGLHHLVVFDVIDNQLYNRTSIAAISPGIPDGFCIDHNNVIYCSCETGLLVLLLDGTFLGRILLDKTASNCTFGLDQKTLFITATNSLYCLTFK
